Experiments:
[1] = SDS-PAGE Western blot of Aβ peptides (stable aggregates); type: physicochemical; conditions: 1 μg peptide, reducing conditions, antiserum 24311; for higher molecular weight oligomers on SDS-PAGE after aging: after 1 and 3 days of aging
Procedure: Lyophilized Aβ peptides were dissolved in 10-mM NaOH at a concentration of 1 mg/mL, aliquoted in 50 μL volumes, flash-frozen in liquid nitrogen and stored at −80 °C until use. For Western blot analysis under reducing conditions, 1 μg peptides were loaded on 4–12 % VarioGels (Anamed), transferred to 0.45 μm nitrocellulose membranes and detected using the primary antiserum 24311 (pan-Aβ, 1:500) or monoclonal antibody 4G8 (Aβ17-24, Signet; 1:500). For Western blotting of mouse brain, whole brain SDS lysates were used. Running and transfer buffers were applied according to the manufacturer. The blots were developed using enhanced chemiluminescence according to the manufacturer (Roth). Horse radish conjugated swine anti-rabbit antibody was used as a secondary antibody (1:3,000, Dianova).

primary cortical neurons = experiment: Calcein-AM cell viability assay; type: cell-based, Wistar rat; conditions: for effect on cell viability: 24 h incubation with freshly prepared peptide at different concentrations, calcein-AM fluorescence; for toxicity profile compared to vehicle control: ANOVA with Bonferroni multiple comparisons
Procedure: Cortical neurons from embryonic day 16–17 Wistar rat fetuses were prepared as previously described. In brief, dissociated cortical cells were plated at 50,000 cells/well in 48-well plates precoated with 1.5 mg/mL polyornithine (Sigma). Cells were cultured in a chemically defined Dulbecco’s Modified Eagle’s/F12 medium free of serum (Gibco) and supplemented with hormones, proteins and salts. […] At 6 DIV, the medium was removed and cortical neurons were incubated for 24 h with vehicle (cell culture medium) or Aβ peptides (dissolved in cell culture medium) at the indicated concentrations.
Following a 24-h incubation of primary cortical neurons with Aβ peptides, cell viability was determined using a calcein-AM assay (Invitrogen, Molecular Probes). Briefly, cells were washed twice with PBS and incubated to protect from light for 30 min at room temperature in the presence of 2 μM calcein-AM solution prepared in PBS. Cells were then washed twice with PBS and incubated for 15 min at room temperature in PBS containing 1 % Triton X-100 (v/v). The level of calcein fluorescence was monitored by fluorescence emission at 530 nm after exciting at 485 nm, using a Fluostar microplate reader (BMG-Labtechnologies, France).

C57BL/6 J wildtype mice = experiment: Y-maze working memory after intracerebroventricular injection of soluble Aβ; type: in vivo, mouse; conditions: 50 pmol in 1 μL icv, male C57BL/6 J mice 12-week old, n = 6 per group, Y-maze on day 4, 5-min session
Procedure: Male C57BL/6 J mice (12-week old, Janvier, Le Genest-St-Isle, France; n = 6 per treatment group) were housed five to six per cage with free access to food and water, and were kept in a constant environment (22 ± 2 °C, 50 ± 5 % humidity, 12-h light cycle). Under anesthetization, freshly prepared Aβ peptides (50 pmol in 1 μL; 0.1 M phosphate-buffered saline (pH 7.4)) or vehicle (0.1 M phosphate-buffered saline) were injected into the right ventricle, with stereotaxic coordinates from the bregma (AP −0.22, L −1.0 and D 2.5 in mm). Intracerebroventricular (icv) injections were made using a 10-μl Hamilton microsyringe fitted with a 26-gauge needle. Four days following icv infusion of Aβ peptides, working memory was assessed using the Y-maze test.
Immediate spatial working memory performance in male C57BL/6 J wildtype mice (12-week old, Janvier, Le Genest-St-Isle, France; n = 6 per treatment group) was assessed by recording spontaneous alternation behavior in a Y-maze as described previously. The Y-maze task was carried out on day 4 after soluble Aβ application. The maze was made of opaque plexiglas and each arm was 40-cm long, 16-cm high, 9-cm wide and positioned at equal angles. Mice were placed at the end of one arm and allowed to move freely through the maze during a 5-min session. The series of arm entries were recorded visually and arm entry was considered to be completed when the hind paws of the mouse were completely placed in the arm. Alternation was defined as successive entries into the three arms on overlapping triplet sets. The percentage alternation was calculated as the ratio of actual (total alternations) to possible alternations (defined as the number of arm entries minus two), multiplied by 100.

[2] = Far-UV circular dichroism (CD) spectroscopy; type: physicochemical; conditions: 0.2 mg/mL, phosphate buffer 20 mM pH 7.2, 20 °C, monomeric state
Procedure: Samples of 0.2 mg/mL peptide concentration in phosphate buffer (20 mM, pH 7.2) were prepared. The far-UV CD measurements were conducted on a Chirascan CD spectrometer, with a 1-mm path length quartz cell, 1-nm bandwidth and 8-s collection time for each point at 0.5 nm steps between 190 and 260 nm. The buffer spectrum was also measured and subtracted from the spectra of Aβ peptides. The temperature-dependence of secondary structure was studied through far-UV measurements at three different temperatures, 20, 30 and 40 °C. The reversibility of temperature-induced changes was checked with an additional CD spectrum measured after cooling down from 40 to 20 °C. The CD spectrum of the cooled sample was taken after 5 min of equilibration at 20 °C. The 0.2 mg/mL Aβ samples in phosphate buffer (20 mM, pH 7.2) containing 25 mM NaCl were incubated at 37 °C for 3 days with gentle stirring.

[3] = Dynamic light scattering (DLS) of peptide supernatants; type: physicochemical; conditions: DLS at 20 °C, 0.2 mg/mL, phosphate buffer 20 mM pH 7.4, 25 mM NaCl; after 24 h at 37 °C without agitation; supernatant after 16,000g 15 min
Procedure: DLS experiments were performed at 20 °C on a DynaPro Titan (Wyatt Technology Corp., CA) instrument with a scattering angle of 90°. The samples were centrifuged at 16,000g for 15 min, and then the supernatant was taken for DLS measurements. The “monomeric” samples were prepared freshly in phosphate buffer (20 mM, pH 7.4) containing 25 mM NaCl at a peptide concentration of 0.2 mg/mL. The aggregated samples were prepared after incubation at 37 °C for 24 h, without further promotion of aggregation by agitation. The size distribution was determined by a constrained regularization method. The reported scattering intensities are from three separate measurements of the same sample.

[4] = 1D 1H NMR monomer consumption assay; type: physicochemical; conditions: 40 μM peptide, phosphate buffer 20 mM pH 7.2, 25 mM NaCl; after 14 h of incubation at 37 °C; methyl and aromatic 1H signals normalised to DSS
Procedure: 1D ^1H NMR spectra of the five different Aβ peptides were measured at 5 °C at 400 MHz ^1H Larmor frequency. The samples contained 40-μM peptide in phosphate buffer (20 mM, pH 7.2) with 25-mM NaCl. The aggregation propensity of the Aβ variants were then studied through real-time 1D ^1H NMR experiments at 37 °C continued for 14 h at 1-h intervals. The integrated intensity of ^1H peaks at two regions (0.50–1.05 ppm, 6.50–8.00 ppm), after chemical shift using DSS ([…]) as a reference standard, was then calculated. After normalization by the integrated intensity of the DSS peak at 0 ppm, the relative intensity of the peptide ^1H peaks was used to probe peptide monomer consumption during the early phases of peptide aggregation.

[5] = Transmission electron microscopy (TEM) of aggregates; type: physicochemical; conditions: 0.1 mg/mL, HEPES 25 mM pH 7.4, 50 mM NaCl, 3 days at 37 °C with gentle stirring
Procedure: Peptide samples of 0.1 mg/mL concentration in HEPES buffer (25 mM, pH 7.4, 50 mM NaCl) were incubated at 37 °C with gentle stirring. After 3 days of incubation, samples were diluted, deposited onto carbon-coated copper mesh grids and negatively stained with 2 % (w/v) uranyl acetate. The excess stain was washed away, and the sample grids were allowed to air-dry. The samples were then viewed with a 120-kV transmission electron microscope.

Substance	higher molecular weight oligomers on SDS-PAGE after aging [1]	species on SDS-PAGE, freshly dissolved peptides [1]	effect on cell viability (primary cortical neurons)	toxicity compared with Aβ4-40 at 5 μM (primary cortical neurons; 24 h incubation, 5 μM, calcein-AM)	toxicity profile compared to vehicle control (primary cortical neurons; 24 h incubation, calcein-AM)	working memory (Y-maze alternation rate) (C57BL/6 J wildtype mice)	secondary structure by far-UV CD spectrum [2]	hydrodynamic radius of small (main) aggregates [3]	loss of initial 1H NMR signal intensity (monomer consumption) [4]	aggregate morphology by TEM [5]
Aβ1-42: full-length amyloid β 1-42, purchased from PSL [reference compound]	higher molecular weight oligomers in addition	monomers and aggregates most likely representing trimer/tetramers	dose-dependent reduction in cell viability	more potent than Aβ4-40	strongest toxic effect	performed at chance level and showed a significant and robust deficit in working memory	unstructured in the monomeric state	5–10 nm	around 5%	–
Aβ4-38: amyloid β (Aβ) variant, N-truncated, purchased from PSL	not	monomers, dimers but no other oligomers	dose-dependent reduction in cell viability	–	only toxic at 10 μM	behaved like vehicle controls and learned well	unstructured in the monomeric state	–	rose slightly in intensity	clumps of fibrillar aggregates
Aβ4-40: amyloid β (Aβ) variant, N-truncated, purchased from PSL	not	monomers, dimers but no other oligomers	dose-dependent reduction in cell viability	–	–	significantly reduced	unstructured in the monomeric state	–	around 5%	clumps of fibrillar aggregates
